Source: patent US20110287023A1 (AstraZeneca / MedImmune, published 2011)

T1: HMG2 coated on ELISA plates (Bos taurus (Bovine), UniProt P40673 2-209)
T1 construct: also called HMGB2; HMBG2
T1 sequence: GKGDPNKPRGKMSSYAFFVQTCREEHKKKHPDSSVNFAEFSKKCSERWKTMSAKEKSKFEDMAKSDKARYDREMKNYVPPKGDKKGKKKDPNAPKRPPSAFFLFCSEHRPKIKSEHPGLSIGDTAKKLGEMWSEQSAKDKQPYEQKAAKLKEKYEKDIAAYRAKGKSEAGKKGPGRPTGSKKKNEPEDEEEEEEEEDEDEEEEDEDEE

T2: recombinant rat HMGB-1 labelled with europium (rat, UniProt P63159 1-215, limits assumed, Eu label, molar ratio HMGB-1 to Eu 1:5)
T2 construct: also called Europium-labeled HMGB-1
T2 sequence (looked up): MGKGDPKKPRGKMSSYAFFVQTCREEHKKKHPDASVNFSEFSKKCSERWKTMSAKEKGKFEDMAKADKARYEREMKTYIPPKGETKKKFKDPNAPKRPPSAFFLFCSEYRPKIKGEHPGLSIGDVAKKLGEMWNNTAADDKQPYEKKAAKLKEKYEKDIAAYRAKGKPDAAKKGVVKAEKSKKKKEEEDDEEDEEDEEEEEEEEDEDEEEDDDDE

T3: HMG1 B Box peptide amino acids 91-169
T3 construct: also called HMG1 peptide 91-169
T3 peptide: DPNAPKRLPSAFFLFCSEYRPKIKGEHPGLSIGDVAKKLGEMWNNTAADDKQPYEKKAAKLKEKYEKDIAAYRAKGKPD

T4: HMG1 B Box peptide amino acids 150-183
T4 peptide: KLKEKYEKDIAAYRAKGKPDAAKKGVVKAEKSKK

T5: HMG1 purified from calf (bovine) thymus (bovine, UniProt P10103 2-215)
T5 construct: also called Calf thymus HMGB1; thymus HMG1
T5 sequence (looked up): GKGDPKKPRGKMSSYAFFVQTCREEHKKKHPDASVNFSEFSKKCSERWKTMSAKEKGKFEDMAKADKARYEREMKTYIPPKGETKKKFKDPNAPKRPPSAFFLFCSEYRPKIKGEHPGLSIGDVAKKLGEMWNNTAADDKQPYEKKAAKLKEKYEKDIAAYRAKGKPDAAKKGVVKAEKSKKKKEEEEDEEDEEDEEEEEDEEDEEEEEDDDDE

T6: activated HMG1 from LPS stimulated THP-1 cells (human, UniProt P09429 1-215)
T6 sequence (looked up): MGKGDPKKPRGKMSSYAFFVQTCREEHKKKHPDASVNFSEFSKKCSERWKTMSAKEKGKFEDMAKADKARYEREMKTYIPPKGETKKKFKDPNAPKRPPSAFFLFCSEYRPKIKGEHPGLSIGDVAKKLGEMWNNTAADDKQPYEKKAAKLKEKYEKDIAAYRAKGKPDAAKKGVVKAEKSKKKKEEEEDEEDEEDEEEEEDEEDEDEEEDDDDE


Legend:
[1] = molecular target: T7, recombinant HMG1 produced in E. coli as a calmodulin binding protein (CBP) fusion (human); experiment: cell-based or functional assay
[2] = molecular target: T1, HMG2 coated on ELISA plates; experiment: direct ELISA, HMGB2 coated at 5 ug/mL, OD 490
Description: (§1) Binding to HMG1 vs. HMG2: Ultra high-binding ELISA plates (ThermoLab systems, #3855) were coated with either 5 ug/mL of Calf thymus HMGB1 or HMBG2 diluted in 10 mM Phosphate buffered saline (PBS), pH 7.2 and incubate overnight at 4 degrees. The plates were washed twice with Ca and Mg free PBS and 100 microliters of anti-HMGB1 antibody diluted in 10 mM PBS, pH 7.2+1% bovine serum albumin (BSA) to a final concentration of 10 ug/mL was added to each well and the plates were incubated 1 hour at room temperature. The wells were washed three times with 100 μl of PBS, pH 7.2. HRP labeled goat-anti-human IgG Kappa-chain (KPL, #14-10-10) and goat-anti-human IgG Lambda-chain (KPL, #14-10-11) were diluted in 10 mM PBS+1% BSA 1:1000 and 100 μl were added to each well and incubated for 1 hour at room temperature. The wells were then washed three times with 100 μl of PBS, pH 7.2. OPD substrate (Pierce chemical company, #34006) was prepared following the manufacturers instructions and 100 μl of prepared substrate was added to each well and the plates incubated at room temperature in the dark for 20-30 minutes. The reaction was stopped with the addition of 100 μl of 2M H₂SO₄, and the plates read on a plate reader at a wavelength of 490 nm.

[3] = molecular target: T7, recombinant HMG1 produced in E. coli as …; experiment: BIAcore 3000, mAb amine-coupled to CM5, HMG1 injected, steady-state model
Description: HMG1 Binding Affinity via BIAcore Analysis: All experiments were performed on a BIAcore 3000 instrument (BIAcore, Inc., Piscataway, N.J.). Briefly, each mAb was immobilized to a CM5 sensor chip using a standard amine coupling chemistry. Separately a reference (control) flow cell was also prepared. Two-fold, serial dilutions of HMG1 in instrument buffer were sequentially injected at a slow flow rate over the individual mAb and reference flow-cell surfaces. Following the binding and dissociation of HMG1, the mAbs surfaces were regenerated with a brief pulse of 1M NaCl-50 mM NaOH. At the end of each experiment, the binding curves were evaluated using a steady-state model available through the BIAevaluation software supplied by BIAcore, Inc. (Piscataway, N.J.).

[4] = molecular target: T2, recombinant rat HMGB-1 labelled with …; experiment: inhibition of binding of 2 nM Eu-labelled recombinant rat HMGB-1 to THP-1 cells
Description: HMG1 binding to THP-1 Cells: Recombinant rat HMGB-1 was labeled using Eu-labelling Kit from PerkinElmer. Molar ratio of HMGB-1 to Eu is 1:5. THP-1 were cultured as the protocol from ATCC. Cells were harvested and suspended at concentration 1×10⁶/ml in assay buffer containing 1×DELFIA L*R binding buffer (PerkinElmer), 50% of DELFIA stabilizer (PerkinElmer) and 0.05% of sodium azide. 100 μl of cells (1×10⁵) was added into wells in 96 well cell culture plate. The plate was incubated with gentle shaking at 4° C. for one hour. 100 μl of assay buffer containing 2 nM of Europium-labeled HMGB-1 mixed with various concentrations (333, 166.5, 83.25, 41.6, 20.8, 10.4 and 5.2 nM) of human anti-HMGB1 antibodies E11 or G2 or soluble human RAGE-Fc, were added into each wells respectively. After one hour incubation with gentle shaking at 4° C., the cells were washed four times with 1×L*R wash buffer (PerkinElmer) by centrifuging at 1200 rpm×5 min. 200 μl of enhancement solution was added into each well to dissociate and enhance Eu fluorescence at 615 nm. The fluorescence was measured with Wallac Victor Fluorometer. Assay was performed in triplicate and human antibody R3-47 was used the negative isotype control.

[5] = molecular target: T3, HMG1 B Box peptide amino acids 91-169; experiment: ELISA, HMG1 B Box peptide 91-169 coated at 10 ug/ml, antibody titrated, OD 450
Description: (§2) The plate was then blocked with 4% milk powder dissolved in PBS at 37° C. for 1 hour. The blocking solution was removed and replaced with human anti-HMG1 antibodies at various concentrations (see FIGS. 5A-B). […] HRP activity was detected with Sureblue HRP substrate (KPL). Plates were read at 450 nm using a Kinetic Microplate Reader (Molecular Devices). […] After washing and blocking with 1% BSA in PBS, the biotinylated peptides were individually added into the avidin coated wells and incubated for 30 min at room temperature. The serial diluted antibody G4, S16 and S6 at the initial concentration at 10 μg/ml were then transferred into the wells followed by adding mouse anti human IgG-HRP conjugate (Pierce). Detection was accomplished by adding 50 μl of tetramethylbenzidine (TMB) substrate (KPL) and the absorbance was read at 450 nm.

[6] = molecular target: T4, HMG1 B Box peptide amino acids 150-183; experiment: ELISA, HMG1 B Box peptide 150-183 coated at 10 ug/ml, antibody titrated, OD 450
Description: as §2

[7] = molecular target: T5, HMG1 purified from calf (bovine) thymus; experiment: direct ELISA, calf thymus HMGB1 coated at 5 ug/mL, antibody at 10 ug/mL, anti-human kappa/lambda-HRP, OD 490
Description: as §1

[8] = molecular target: T6, activated HMG1 from LPS stimulated …; experiment: cell-based or functional assay
[9] = molecular target: T7, recombinant HMG1 produced in E. coli as …; experiment: ELISA, coated RAGE-Fc, rHMG1 preincubated with antibody
Description: HMG1 binding to RAGE-Ig by ELISA: 50 μl/well of RAGE-Fc fusion protein at 5 μg/ml in PBS was added to each well of an ELISA plate and incubated overnight at 4° C. The plate was then blocked with 200 μl of 5% milk at 37° C. for 1 hr and washed 3× with PBS/Tween. 50 μl/well of diluted HMGB1 solution. For dose curves, HMGB1 concentrations started at 4 ug/ml in PBS. For antibody blocking the HMGB1 was preincubated in another plate with human anti-HMG1 antibodies or buffer, then transferred to the RAGE-coated plate. The plates were then incubated at room temperature for 2 hours and washed 3×. To detect any HMG1 bound to the immobilized RAGE-Fc a mixture of biotinylated mouse anti-HMG1 mAbs (10D4, 4H11, 3E10 and 5C12) each at 1 ug/ml, total Ab: 4 ug/ml, were added to each well and the plate was incubated for 1 hour at room temperature. The plate was then washed and Strepavidin-HPR was added to each well and incubated 15 min. The plate was then washed 3× and blotted dry. 100 μl of TMB developing agent was added and the plate read at 650 nm. Values were calculated as percent of inhibition with HMG1 alone equal to 0% inhibition. The data in FIG. 9 and summarized in Table 1 represent the average of two separate experiments.

[10] = molecular target: T7, recombinant HMG1 produced in E. coli as …; experiment: sandwich ELISA: antibody titrated and captured on anti-human IgG Fc, soluble recombinant HMG1 at 2 ug/ml, mouse anti-HMGB1 and anti-mouse IgG-HRP, OD 450
Description: Sandwich ELISA (soluble HMG1): Immunoplates (EIA/RIA plate, High binding, Costar) were coated with anti human IgG Fc at 10 μg/ml in PBS (pH 7.2) and incubated at 4° C. overnight. The coating reagent was removed and the plates were rinsed briefly with PBS. The plates were then blocked with 4% milk for 1 hour at 37° C. and rinsed with PBS. The anti-HMG1 antibodies were diluted in 4% milk. For serial dilutions, the antibodies were used at a starting concentration of 20 μg/ml. The diluted anti-HMG1 antibodies were then added into plate and incubated for 1 hr at 37° C. The plate was then washed 10 times with PBST (PBS/0.1% tween 20) and incubate with antigen (HMGB1, 2 μg/ml; or 0.7 μg/ml for native HMGB1) in 4% milk and incubated at 37° C. for 1 h. The plate was then wash 10 times and incubated with mouse anti-HMGB1, 1 μg/ml in 4% milk at 37° C. for 1 h. The plate was washed 10 times and incubated with anti-mouse IgG-HRP at 1:1000 at 37° C. for 1 h. The plate was then washed and developed. HRP activity was detected with Sureblue HRP substrate (KPL). Plates were read at 450 nm using a Kinetic Microplate Reader (Molecular Devices).

| Binder | IC50 IL-1β [1] [mg/L] | IC50 IL-6 [1] [µM] | IC50 IL-12 [1] [mg/L] | IC50 TNF-α [1] [mg/L] | binding result [2] | Kd [3] [µM] | IC50 [4] [µM] | binding result [5] | binding result [6] | binding result [7] | IC50 NO [1] [mg/L] | IC50 nm IL-6 Native HMGB [8] [µM] | percent inhibition of HMG1 binding to RAGE [9] [%] | EC50 (read off the curve) [10] [mg/L] |
| --- | --- | --- | --- | --- | --- | --- | --- | --- | --- | --- | --- | --- | --- | --- |
| human anti-HMG1 antibody G2 (antibody, IgG1, V domains shown, full length IgG1 made from a human Fab phage clone) VH: EVQLLESGGGLVQPGGSLRLSCAASGFTFSWYKMQWVRQAPGKGLEWVSGISPSGGSTAYADSVKGRFTISRDNSKNTLYLQMNSLRAEDTAVYYCAKMGLFNTGNSYVDYWGQGTLVTVSS VL: AQSELTQPPSVSEAPGQRVTISCSGSTSNIGNNAVIWYQQLPGKAPKLLIYYDDLLPSGVSDRFSGSKSGTSGSLAISGLQSEDEADYYCASWDDNLNGPLFGGGTKLTVL | 5.03 | 0.000994 | 1.26 | 1.35 | no binding (tested: 10 ug/mL (single concentration)) | 0.101 | 0.0733 | no binding (tested: 10 ug/ml (log 1.0)) | no binding (tested: 10 ug/ml (log 1.0)) | binds | – | – | – | – |
| human anti-HMG1 antibody S17 (antibody, IgG1, V domains shown, full length IgG1 made from a human Fab phage clone) VH: EVQLLESGGGLVQPGGSLRLSCAASGFTFSYYDMHWVRQAPGKGLEWVSRISPSGGYTWYADSVKGRFTISRDNSKNTLYLQMNSLRAEDTAVYYCTRGRYTSGWHEYFDPWGQGTLVTVSS VL: DIQMTQSPSSLSASVGDRVTITCRASQSIGTYLNWYQQKPGTAPKVLIYAASSLQSGVPSRFSGSGSGTDFTLTISSLQPEDFSTYYCQQSYNTPRTFGQGTKLEIK | 0.0809 | 0.000162 | – | – | no binding (tested: 10 ug/mL (single concentration)) | 0.331 | – | no binding (tested: 10 ug/ml (log 1.0)) | no binding (tested: 10 ug/ml (log 1.0)) | binds | 41.7 | 0.0114 | – | – |
| human anti-HMG1 antibody S2 (antibody, V domains shown, full length IgG1 made from a human Fab phage clone; also called ATCC PTA-6142) VH: EVQLLESGGGLVQPGGSLRLSCAASGFTFSGYMMVWVRQAPGKGLEWVSRISPSGGQTGYADSVKGRFTISRDNSKNTLYLQMNSLRAEDTAVYYCAREEGGSYGAFDIWGQGTMVTVSS VL: not shown | 0.22 | 0.000163 | – | 0.0642 | no binding (tested: 10 ug/mL (single concentration)) | 0.036 | – | no binding (tested: 10 ug/ml (log 1.0)) | no binding (tested: 10 ug/ml (log 1.0)) | binds | – | – | ≥ 35 | ~0.08 |
